Source: PMC5556974 (Developmental cell, 2017)
Each block holds one molecule with its values, some of them ahead of it.

Columns and labels:
[1] = target: GST-CrCEP19 (Chlamydomonas reinhardtii); test: pull-down
[2] = target: GST-CEP19 (human) (UniProt Q96LK0); test: pull-down
[3] = target: the molecule itself

GST-CEP19 (human), sequence (Q96LK0 whole entry): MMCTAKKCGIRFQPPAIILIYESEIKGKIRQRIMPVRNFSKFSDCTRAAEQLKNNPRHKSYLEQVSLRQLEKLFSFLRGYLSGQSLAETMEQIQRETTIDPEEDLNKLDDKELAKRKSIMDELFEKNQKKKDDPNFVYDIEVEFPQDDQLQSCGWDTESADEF

fold enhancement of binding by GTP addition [1]: 5 fold
Molecule: MYC-CrRabl2 (in vitro translated) (natural protein)

fold enhancement of binding by GTP addition [2]: 5 fold
Molecule: MYC-RABL2B, full length (in vitro translated) (from UniProt Q9UNT1 1-228) (natural protein)

B1: untagged human RABL2B (natural protein, UniProt Q9UNT1-2 1-229, looked up)
chain: MAEDKTKPSELDQGKYDADDNVKIICLGDSAVGKSKLMERFLMDGFQPQQLSTYALTLYKHTATVDGRTILVDFWDTAGQERFQSMHASYYHKAHACIMVFDVQRKVTYRNLSTWYTELREFRPEIPCIVVANKIDADINVTQKSFNFAKKFSLPLYFVSAADGTNVVKLFNDAIRLAVSYKQNSQDFMDEIFQELENFSLEQEEEDVPDQEQSSSIETPSEEAASPHS
stoichiometry N [3]: 4
